Assay results from PMC8943916.

Biological target: TIM (the TIM-EGFP-LacI bait of the FRAP experiment, not named)
Assay: FRAP

FRAP half-life: 11.7 s
Substance: TagRFP-IWS1-TND (from UniProt Q96ST2 614-692) (domain or fragment)
